Experimental data published in article PMC8674358.
Where “and” joins values, the source holds several entries; their conditions need not be identical. Equal entries are not always repeated.

How the values were obtained:
[1] = molecular target: IRE1-KR-0P: human IRE1α kinase-endoribonuclease module (residues G547-L977), unphosphorylated (human) (UniProt O75460); test: cross-linking; 1 μg IRE1-KR (~0.8 μM) or various concentrations in RNA cleavage buffer (20 mM HEPES pH 7.5, 50 mM K acetate, 1 mM Mg acetate, 0.05% Triton X-100), 250 μM DSS, 1 h on ice; SDS-PAGE and IRE1α immunoblot; also with CRUK-3 (5 µM), which augmented KR-0P dimerization and oligomerization
[2] = molecular target: IRE1-KR-3P: human IRE1α kinase-endoribonuclease module (residues G547-L977), fully phosphorylated (human) (UniProt O75460); test: as above

Substance | stoichiometry N [1] | stoichiometry N [2]
IRE1-KR-0P: human IRE1α kinase-endoribonuclease module (residues G547-L977), unphosphorylated (from UniProt O75460 547-977) (domain or fragment) | 2 | 
IRE1-KR-3P: human IRE1α kinase-endoribonuclease module (residues G547-L977), fully phosphorylated (from UniProt O75460 547-977) (domain or fragment) |  | 2 and 4 and 6
